HMPV-A1 IC50 and RSV-A2 IC50 data for one substance are collected here from US20220144922A1.

The target in assay [1] is HMPV F protein (NL/1/00, A1 sublineage), on virus (human metapneumovirus). Description: cell-based or functional assay.
Assay [2] concerns the target RSV F protein of subtype A strain A2, on virus (respiratory syncytial virus subtype A strain A2) (UniProt P03420). Description: cell-based or functional assay.

Chain of RSV F protein of subtype A strain A2, on virus (respiratory syncytial virus subtype A strain A2) (P03420 26-574): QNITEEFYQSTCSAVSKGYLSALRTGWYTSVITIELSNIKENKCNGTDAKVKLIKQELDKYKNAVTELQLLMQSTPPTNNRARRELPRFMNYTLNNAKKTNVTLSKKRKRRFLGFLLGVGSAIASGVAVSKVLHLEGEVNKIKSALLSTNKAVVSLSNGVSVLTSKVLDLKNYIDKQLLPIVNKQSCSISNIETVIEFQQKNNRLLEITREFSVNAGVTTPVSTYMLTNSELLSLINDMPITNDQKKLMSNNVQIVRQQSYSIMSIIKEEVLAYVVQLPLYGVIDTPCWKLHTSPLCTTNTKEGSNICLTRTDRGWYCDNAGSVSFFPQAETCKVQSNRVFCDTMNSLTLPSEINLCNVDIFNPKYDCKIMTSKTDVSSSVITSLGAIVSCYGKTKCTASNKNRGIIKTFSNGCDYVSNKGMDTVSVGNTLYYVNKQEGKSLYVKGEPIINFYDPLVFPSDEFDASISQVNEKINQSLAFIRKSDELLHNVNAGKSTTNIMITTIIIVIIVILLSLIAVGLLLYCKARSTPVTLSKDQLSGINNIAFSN

Turning to MPE8 (antibody), the HMPV-A1 IC50 in assay [1] turned out to be 0.07 µg/mL. Further, in assay [2], the RSV-A2 IC50 turned out to be 0.04 µg/mL.
